Test results as given in patent US20100181197A1, “ISOELECTRIC POINT MARKERS” (GE HEALTHCARE BIO-SCIENCES AB, priority 2007, published 2010).
Ends that are not written are not given here.

Assay: Isoelectric focusing of CY5-labelled pI markers in IPG strips, fluorescence scan
Type: physicochemical
Settings: linear IPG pH 3.70-4.05, 22 cm strip, 8 M urea, 20° C., 129 kVh, 0.3 μg/strip
Experimental: The amino acid sequences of the isoelectric point markers were selected essentially as described in Shimura, K. et al, Electrophoresis, (2000), 21, 603-610. The markers contain a minimum of two […] groups with pK values in the vicinity of the pI value of the corresponding marker. The pH scale is a pH scale defined for isoelectric focussing in 8M urea and 20° C. as described in Bjellqvist, B. et al, Electrophoresis, (1993), 14, 1357-1365, Bjellqvist, B. et al, Electrophoresis, (1994), 15, 529-539.
3.2 Sample application was performed with polyacrylamide gel pieces, cast as 1 mm thick gel of the size 260×110 mm on a GelBond PAGE film. In addition to acrylamide (38.8 gram/litre) and bisacrylamide (1.2 gram/litre) the gel polymerising solution contained 15.0 mM Immobiline pK 3.6 and 5.9 mM Immobiline pK 9.3. The polymerisation initiators used were ammonium persulfate and tetramethyl ethylenediamine. The gel was extensively washed in water (10 wash cycles of 20 minutes using 200 ml water/wash). To the last wash was added 2% glycerol. The gel was then dried and cut to generate a number sample application gel pieces of the size 43×7 mm.
Four, 22 cm long IPG strips were re-swollen overnight in 250 μl 8 M urea solution containing 1% Pharmalyte pH 2.5-5 and a trace of bromophenol blue. In parallel, four sample application gel pieces were re-swollen in 315 μl sample solution containing 300 μg yeast protein in 8 M urea to which 0.3 μg of the pI marker had been added.
The four re-swollen IPG strips were positioned in a ceramic manifold in the IPGPHOR™ 3 with the GelBond film downwards. At the basic/cathodic ends of the IPG strips, paper electrode wicks (10×7×1 mm) to which 150 ul water had been added, were positioned on top of the IPG strips with an overlap of 2 mm to establish electric contact. At the anodic end, the wetted electrode wick was positioned 39 mm away from the acidic end of the IPG strip. The re-swollen acidic sample application gel was positioned with the gel side down as a bridge between the paper electrode wick and the IPG strip to give contact both with the paper wick and with the IPG strip through a 2 mm overlap region. The anodic and cathodic electrodes were finally positioned on the anodic and cathodic paper electrode wicks respectively and a light pressure was applied on the back of the sample application gels at the over lap regions with the paper electrode wicks and the IPG strips respectively.
3.3 Focusing was then performed at 20° C. with maximum current set to 50 uA/strip with the following voltage settings:
The focusing experiment was performed with current limitations from 1000V onwards; 2500 V was reached after 5 hours and the voltage only changed slowly to reach a final voltage of 2715 V after 52 hours 23 minutes and a total volthourproduct of 129 kilovolthours.
Upon completion, the gel strips were transferred to a TYPHOON™ 9400 imager and scanned in the fluorescence mode at 633 nm (FIG. 3). From the focusing positions the pI-value for the marker was determined to be 3.86.
Focusing was performed in IPG strips pH 3.4-4.9 containing a non-linear pH-gradient adjusted to give an even distribution of peptides in the focused strip. The experiment was run essentially as described in Example 3. For sample application, the same type of polyacrylamide gel applicator was used, this time re-swollen in an 8M urea solution containing 30 μg of the digested yeast proteins and 0.3 μg of each of the four pI-markers. Focusing was continued for 47 hours 45 minutes and the total volthourproduct was 207 kVh.

Substance | pI-value for the marker from focusing positions
H2N-Asp-Gly-Asp-Gly-Lys(CY™5)-COOH (H-DGDGK(Cy5)-OH) [Compound xvii] | 3.86

Same assay, conditions: marker reacted at C-terminal lysine with CY5; experimental pI

Substance | pI (exp) pI/marker
H2N-Gly-Gly-Glu-Gly-Gly-Glu-Gly-Lys(CY™5)-COOH (H-GGEGGEGK(Cy5)-OH) [xxiv] | 4.42
H2N-Gly-Gly-Gly-Gly-Glu-Glu-Lys(CY™5)-COOH (H-GGGGEEK(Cy5)-OH) [Compound xxi] | 4.56
H2N-Glu-Gly-Asp-Gly-Lys(CY™5)-COOH (H-EGDGK(Cy5)-OH) [Compound xxii] | 4.18
H2N-Gly-Glu-Gly-Gly-Glu-Gly-Glu-Lys(CY™5)-COOH (H-GEGGEGEK(Cy5)-OH) [xix] | 4.22
H2N-Gly-Asp-Gly-Gly-Asp-Gly-Gly-Lys(CY™5)-COOH [xviii] | 4.02
H2N-Gly-Glu-Glu-Gly-Gly-Lys(CY™5)-COOH [Compound xx] | 4.44
H2N-Asp-Gly-Asp-Gly-Lys(CY™5)-COOH (H-DGDGK(Cy5)-OH) [Compound xvii] | 3.86
H2N-Glu-Gly-Glu-Gly-Lys(CY™5)-COOH (H-EGEGK(Cy5)-OH) [xxiii] | 4.28

Assay: Experimentally determined pI-values of tryptic peptides focused in IPG strips
Type: physicochemical
Settings: tryptic yeast peptides focused in IPG strips 3.7-4.05
Text: Both methods are based on the equilibria of amino acid residues participating in reactions with water and can be described with one pK-value for each type of residue, which is independent of the nature of neighbouring amino acids. The consequence of this assumption is that for large groups of tryptic peptides, the same pI-value will be predicted. […] The approaches described above will result in the same pI-value for all these peptides. The value predicted at the Expasy server is 4.53, which can be compared with the value resulting from the experimental distribution, i.e. 4.49±0.075.
It would be expected that the presence of two negatively charged amino acid residues at limited distances from each other along the amino acid chain should result in an increase of the pK-values involved and a concomitant increase of the pI-value, while two positively charged residues at limited distances from each other along the peptide chain could be expected to give reversed effect, i.e. a decrease in pK-values and a concomitant decrease of the pI-value. In reality, no such effects can be detected. […] In the peptides, C-terminal amino acids are either lysine or arginine. […] This is explained by the presence of two oppositely charged amino acid residues in the chain, thereby favouring configurations with a short distance between the two residues. As a consequence, pK-values are affected also when these residues are separated by up to 5 amino acid residues. On the other hand, the presence of two equally charged residues favours configurations with the longest possible distance between the charged groups and for neighbouring charged residues, the average distance becomes too long to generate a detectable effect on pK and pI values.
The C-terminal, which in tryptic digests is either lysine or arginine contains both a positively charged group and a negatively charged group, gives notable effects on resulting pI-values only when the neighbouring group is charged. At larger distances, for peptides having two internal glutamic acid residues (no glutamic acid in position 1-6), the C-terminal amino acid being either lysine or arginine, the effect on pI is negligible (Table 2).
3.1 Yeast proteins (Saccharomyces cerevisiae, type II (1 gram) were dissolved in a 10 ml solution containing 50 mM Tris-HCl pH 8.0, 6 M urea and 10 mM DDT. The solution was allowed to stand for 1 hour at 37° C. and then allowed to react with iodoacetamide (addition of 250 μl 0.8 M iodoacetamide solution) for 30 minutes at room temperature to […] the cysteine groups. The sample was then sonicated 5 times for 30 seconds followed by dilution of the sample in 50 mM Tris-HCl, 1 mM CaCl2 (1 ml sample to 9 ml Tris-Cl buffer solution). 2.5 ml of diluted sample was added to a container with 250 μg trypsin (4 containers for 10 ml diluted sample) and digestion was allowed to proceed for 2 hours at 37° C. The sample was then concentrated by evaporation to 2 ml. 1 ml of digested concentrated sample was then added to a NAP-10 column pre-equilibrated with 15 ml 8 M urea solution and the sample was eluted with 1.5 ml urea. After a protein determination the sample was aliquoted and frozen until used.
A total of 6612 tryptic yeast peptides have been identified after focusing in IPG strips 3.7-4.05. Sixteen of these peptides have a structure (Table 5) which should give them a pI in close agreement with the pI of the marker. The average value found for these peptides 3.80±0.03 is in reasonable agreement with the value found for the pI marker.

Substance | pI-value
DTDYVPIVVVGNK [tryptic yeast peptide identified after focusing in IPG strips 3.7-4.05] | 3.840
DNDVQLAATK [tryptic yeast peptide identified after focusing in IPG strips 3.7-4.05] | 3.800
DCDSLSSLVTR [tryptic yeast peptide identified after focusing in IPG strips 3.7-4.05] | 3.765
DLDAAQGTLK [tryptic yeast peptide identified after focusing in IPG strips 3.7-4.05] | 3.815
DSDYIPVVVVGNK [tryptic yeast peptide identified after focusing in IPG strips 3.7-4.05] | 3.825
DLDAVNGSNGSK [tryptic yeast peptide identified after focusing in IPG strips 3.7-4.05] | 3.790
DIDILVNNAGK [tryptic yeast peptide identified after focusing in IPG strips 3.7-4.05] | 3.828
DIDNGYTLSLMYK [tryptic yeast peptide identified after focusing in IPG strips 3.7-4.05] | 3.800
DTDMVLIPAGVPR [tryptic yeast peptide identified after focusing in IPG strips 3.7-4.05] | 3.808
DGDYNLVGSK [tryptic yeast peptide identified after focusing in IPG strips 3.7-4.05] | 3.746
DLDLPTQQILVAR [tryptic yeast peptide identified after focusing in IPG strips 3.7-4.05] | 3.830
DSDVTWLYGPIVR [tryptic yeast peptide identified after focusing in IPG strips 3.7-4.05] | 3.800
DGDQVVFMVSQK [tryptic yeast peptide identified after focusing in IPG strips 3.7-4.05] | 3.760
DQDSAVVSSNIK [tryptic yeast peptide identified after focusing in IPG strips 3.7-4.05] | 3.823
DVDLVNAAR [tryptic yeast peptide identified after focusing in IPG strips 3.7-4.05] | 3.800
DADLLNSVVVQR [tryptic yeast peptide identified after focusing in IPG strips 3.7-4.05] | 3.775
